Data set [1] has as its target recombinant Pichia pastoris zeta crystallin (PpZTA1) (Pichia pastoris). Put plainly: SEC. (SEC sorts molecules by how far they enter the pores of the column.)
In data set [2] the target is T1, PpZTA1 (zeta crystallin / quinone oxidoreductase), recombinant (Pichia pastoris, UniProt F2QTB9 1-336).
T1 sequence: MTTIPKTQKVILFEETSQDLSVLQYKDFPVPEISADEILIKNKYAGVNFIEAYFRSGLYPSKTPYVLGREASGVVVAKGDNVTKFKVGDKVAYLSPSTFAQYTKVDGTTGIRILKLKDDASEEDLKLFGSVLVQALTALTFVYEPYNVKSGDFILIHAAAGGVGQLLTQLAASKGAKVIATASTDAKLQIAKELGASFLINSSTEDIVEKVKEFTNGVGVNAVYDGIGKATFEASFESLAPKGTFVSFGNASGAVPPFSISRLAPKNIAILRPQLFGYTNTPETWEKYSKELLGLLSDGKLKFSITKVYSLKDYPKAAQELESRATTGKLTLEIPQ
Put plainly: EMSA. A general note: In EMSA bound probe runs differently from free probe, usually more slowly.

As usually defined, the stoichiometry N is the number of molecules, sites or subunits per partner or assembly. What is called Kd is the equilibrium constant for the complex coming apart.

On to “recombinant Pichia pastoris zeta crystallin (PpZTA1) (natural protein)”, for which the stoichiometry N in data set [1] was determined as 2.

B1: 229 (ssDNA)
DNA: GAATACTGCTGATAGCCTAACGTTCATGATCAAAATTTAACTGTTCTAACCCCT
As for B1, the Kd in data set [2] was found to be 200 pM.

B2: 288 (ssDNA)
DNA: ACCCGCTTTTTGGATGATTATGCATTGTCTCCACATTGTATGCTTCCAAGATTCTGGTGG
B2: the Kd in data set [2] stood at 900 pM.

B3: 174 (ssDNA)
DNA: ACTTGACAGCAATATATAAACAGAAGGAAGCTGCCCTGTCTTAAACCTTTTTTTTTATCA
As for B3, the Kd in data set [2] was found to be 100 pM.

The values are drawn from publication PMC1557824.
